# Data from article PMC9672406 (The Journal of Biological Chemistry, 2022).
# B1: MqnA from Streptomyces coelicolor (chorismate dehydratase), wild type (enzyme)
# chain: DNSRTRPRVGHIQFLNCLPLYWGLARTGTLLDFELTKDTPEKLSEQLVRGDLDIGPVTLVEFLKNADDLVAFPDIAVGCDGPVMSCVIVSQVPLDRLDGARVALGSTSRTSVRLAQLLLSERFGVQPDYYTCPPDLSLMMQEADAAVLIGDAALRANMIDGPRYGLDVHDLGALWKEWTGLPFVFAVWAARRDYAEREPVITRKVHEAFLASRNLSLEEVEKVAEQAARWEAFDEDTLAKYFTTLDFRFGAPQLEAVTEFARRVGPTTGFPADVKVELLKP
# Target: the molecule itself
# Assay: AUC
protein,measurement,value
B1,stoichiometry N,2
